From patent US20250257137A1 come the findings set out here.

Assay [1] deals with Fcα/µ receptor (R&D systems) (UniProt Q8WWV6). Kind of assay: ELISA, Fcα/µ coated, anti-IgM-HRP; IMB-4011 = 100. Background: ELISA stands for enzyme-linked immunosorbent assay.
Assay [2] deals with pIgR (polymeric Ig receptor; R&D systems) (UniProt P01833). Kind of assay: ELISA, pIgR coated, anti-IgM-HRP; IMB-4011 = 100.
Assay [3] addresses Fcµ receptor (R&D systems) (UniProt O60667). Kind of assay: ELISA, Fcµ coated, anti-IgM-HRP; IMB-4011 = 100.
For assay [4], the target named is conjugate of FcRn and β2m antigen (ACRO biosystems) (UniProt P55899).
Assay [5] deals with pIgR (polymeric Ig receptor; R&D systems) (UniProt P01833). Kind of assay: ELISA, pIgR coated; IMB-4011 = 100 (Example 2-7).
Assay [6] has as its target Fcµ receptor (R&D systems) (UniProt O60667). Kind of assay: ELISA, Fcµ coated; IMB-4011 = 100 (Example 2-7).
Assay [7] addresses Fcα/µ receptor (R&D systems) (UniProt Q8WWV6). Kind of assay: ELISA, Fcα/µ coated; IMB-4011 = 100 (Example 2-7).
In assay [8] the target is anti-CMVpHLA antibody (available from Ajou University).
Assay [9] shares this target. This is another data set of the same source.

As for “[(CMVpHLA)2-(linker)2-(IgG Fc region)-(IgM Fc region L126 deletion)]5-(J chain) (from UniProt P0DOX6 341-576; P01591 23-159) (Fc fusion)”, the Relative binding ability to Fcα/µ receptor (%) in [1] was 1%. Also, the Relative binding ability to pIgR (%) in [2] amounted to 6%. This substance returned a Relative binding ability to Fcµ receptor (%) in assay [3] of 12%.

As for “[(CMVpHLA)2-(linker)2-(IgG Fc region)-(IgM Fc region)]5-(J chain R106 deletion) (from UniProt P0DOX6 341-576; P01591 23-159) (Fc fusion)”, the Relative binding ability to Fcα/µ receptor (%) in assay [1] amounted to 1%. This substance yielded a Relative binding ability to pIgR (%) in assay [2] of 4%. The substance further registered a Relative binding ability to Fcµ receptor (%) in [3] of 59%.

What is called EC50 (read off the curve) is the midpoint of the concentration-response curve. As for “[(CMVpHLA)2-(linker)2-(IgG Fc region)-(IgM Fc region)]5-(J chain) (from UniProt P0DOX6 341-576; P01591 23-159) (Fc fusion)”, the EC50 (read off the curve) in [4] came out at 200 nM.

On to “[(CMVpHLA)2-(linker)2-(IgG Fc region)-(IgM Fc region L126S)]5-(J chain R106V) (from UniProt P0DOX6 341-576; P01591 23-159) (Fc fusion)”, for which the Relative binding ability to pIgR (%) in assay [5] is 2%. The substance also gave a Relative binding ability to Fcµ receptor (%) in assay [6] of 3%. In [7], this substance yielded a Relative binding ability to Fcα/µ receptor (%) of 1%.

“[(CMVpHLA)2-(linker)2-(IgG Fc region)-(IgM Fc region L126G)]5-(J chain R106V) (from UniProt P0DOX6 341-576; P01591 23-159) (Fc fusion)”: the Relative binding ability to pIgR (%) in assay [5] was found to be 2%. Besides, the Relative binding ability to Fcµ receptor (%) in assay [6] was found to be 3%. In [7], this substance yielded a Relative binding ability to Fcα/µ receptor (%) of 0.4%.

With “[(CMVpHLA)2-(linker)2-(IgG Fc region)-(IgM Fc region L126G)]5-(J chain) (from UniProt P0DOX6 341-576; P01591 23-159) (Fc fusion)”, in [3], the Relative binding ability to Fcµ receptor (%) came out at 7%.

The substance “[(CMVpHLA)2-(linker)2-(IgG Fc region)-(IgM Fc region L126S)]5-(J chain) (from UniProt P0DOX6 341-576; P01591 23-159) (Fc fusion)” returned a Relative binding ability to pIgR (%) in assay [2] of 8%. This substance also displayed a Relative binding ability to Fcµ receptor (%) in assay [3] of 7%.

One may read the Kd as the equilibrium constant for the complex coming apart. Higher therefore signals lower affinity. For “[(CMVpHLA)2-(IgA hinge region)2-(IgM Fc region)]5-(J chain) (from UniProt P01591 23-159) (Fc fusion)”, the dissociation constant (Kd) in [8] turned out to be 0.00586 nM.

On to “[(CMVpHLA)2-(linker)2-(IgG Fc region)-(IgM Fc region L126G)]5-(J chain R106W) (from UniProt P0DOX6 341-576; P01591 23-159) (Fc fusion)”, for which the Relative binding ability to pIgR (%) in assay [5] is 2%. Further, the Relative binding ability to Fcµ receptor (%) in [6] is 3%. Moreover, in assay [7], the Relative binding ability to Fcα/µ receptor (%) turned out to be 0.5%.

In assay [8], “[(CMVpHLA)2-((GGGGS)3)2-(IgM Fc region)]5-(J chain) (from UniProt P01591 23-159) (Fc fusion)” came in with a Kd of 0.00622 nM. That is a picomolar value.

With “[(CMVpHLA)2-(linker)2-(IgG Fc region)-(IgM Fc region L126S)]5-(J chain R106W) (from UniProt P0DOX6 341-576; P01591 23-159) (Fc fusion)”, in [5], the Relative binding ability to pIgR (%) amounted to 3%. The Relative binding ability to Fcµ receptor (%) in assay [6] turned out to be 3%. This substance also returned a Relative binding ability to Fcα/µ receptor (%) in assay [7] of 1%.

“[(CMVpHLA)2-(linker)2-(IgG Fc region)-(IgM Fc region)]5-(J chain N107K) (from UniProt P0DOX6 341-576; P01591 23-159) (Fc fusion)” returned a Relative binding ability to pIgR (%) in assay [2] of 8%.

As a reminder, the koff is the rate constant with which the complex falls apart. Low readings indicate a long-lived complex, high ones a short-lived complex. Usually kon stands for the second-order rate constant of association. A low value points to slow association. In assay [8], “[(CMVpHLA)2-(IgD hinge region)2-(IgM Fc region)]6-(J chain)0 (Fc fusion)” came in with a Kd of 0.0233 nM, an off-rate constant (koff) of 0.000197 s⁻¹ and an on-rate constant (kon) of 8.44e+06 M⁻¹ s⁻¹.

For the substance “[(CMVpHLA)2-(linker)0-(IgM Fc region)]5-(J chain) (from UniProt P01591 23-159) (Fc fusion)”, the half-maximal effective concentration (EC50 (read off the curve)) in assay [9] turned out to be 0.01 nM. The Kd in assay [8] turned out to be 0.0102 nM.

The substance “[(CMVpHLA)2-(linker)2-(IgG Fc region)-(IgM Fc region)]5-(J chain D105K) (from UniProt P0DOX6 341-576; P01591 23-159) (Fc fusion)” showed a Relative binding ability to pIgR (%) in [2] of 8%.

The substance “[(CMVpHLA)2-(linker)2-(IgG Fc region)-(IgM Fc region N125K)]5-(J chain) (from UniProt P0DOX6 341-576; P01591 23-159) (Fc fusion)” yielded a Relative binding ability to Fcµ receptor (%) in [3] of 7%.

In turn, “[(CMVpHLA)2-(IgD hinge region)2-(IgM Fc region)]5-(J chain) (from UniProt P01591 23-159) (Fc fusion)” registered a half-maximal effective concentration (EC50 (read off the curve)) in [9] of 0.02 nM. In addition, the Kd in assay [8] came out at 0.00681 nM.

As to “[(CMVpHLA)2-(linker)2-(IgG Fc region)-(IgM Fc region)]5-(J chain R106F) (from UniProt P0DOX6 341-576; P01591 23-159) (Fc fusion)”, the Relative binding ability to Fcα/µ receptor (%) in assay [1] came to 7%.

As for CMVpHLA (peptide-MHC), in assay [8], the Kd is 1.84 nM, the koff is 0.00464 s⁻¹ and the kon was 2.52e+06 M⁻¹ s⁻¹.
